Tests used:
[1] = biological target: the molecule itself; assay: SEC-MALS; full-length P0 in 0.1% LDAO micelles, Superdex 200, 250 mM sodium phosphate pH 8.0, 1 mM EDTA; protein conjugate analysis
[2] = biological target: the molecule itself; assay: SEC-MALS; full-length P0 in 0.1% DPC micelles, Superdex 200, 250 mM sodium phosphate pH 8.0, 1 mM EDTA; protein conjugate analysis

B1: full-length myelin protein zero (P0) from bovine peripheral myelin (natural protein, UniProt P10522 29-248, looked up)
chain: AIVVYTDKEVHGAVGSQVTLYCSFWSSEWVSDDLSFTWRYQPEGGRDAISIFHYAKGQPYIDEVGTFKERIQWVGDPHRKDGSIVIHNLDYGDNGTFTCDVKNPPDIVGKTSQVTLYVFEKVPTRYGVVLGAVIGGVLGVVLLALLLFYLIRYCWLRRQAALQRRLSAMEKGKLHKTAKDASKRGRQTPVLYAMLDHSRSTKAASEKKTKGLGESRKDKK
modifications: N-linked glycan structures belonging to hybrid types
notes: myelin protein zero (P0, MPZ), bovine, native protein from the raft fraction of peripheral myelin; Oligomeric state depended on detergent: tetramer in DPC, dimer in LDAO; also called MPZ; full-length P0
stoichiometry N [1]: 2
stoichiometry N [2]: 4

From paper PMC6345808, “Molecular structure and function of myelin protein P0 in membrane stacking” (Scientific Reports, 2019)
